Assay results as given in patent US20160002297A1, “THERAPEUTIC AGENTS” (NATIONAL UNIVERSITY OF SINGAPORE, priority 2013, published 2016).
Positions of bridges follow the written chain, without caps; N, C: chain ends. No end group written: not given here. *: point of attachment. FITC = O=C1OC2(c3ccc(O)cc3Oc3cc(O)ccc32)c2ccc(NC(=S)*)cc21

Experiments:
B16 melanoma = assay: FITC-RKD targeting to subcutaneous B16 tumor in mice after intravenous delivery; format: in vivo, mouse; conditions: delivered intravenously
Source text: FIG. 9 FITC labelled cRKD (FITC-RKD) targets to subcutaneous B16 tumor in mice when delivered intravenously.
FIG. 10 FITC-RKD targets both the B16 melanoma tumor cells and tumor ECs when delivered intravenously;

HUVECs [1] = assay: Uptake of FITC-labelled peptide by cultured HUVECs; format: cell-based, human; conditions: compared to FITC-labeled cRAA peptide
Source text: FIG. 11 FITC-RKD peptide enters cultured HUVECs likely by endocytosis;

GRP78 [2] = target: T1, GRP78 (Homo sapiens, UniProt P11021); assay: Co-immunoprecipitation with GRP78; format: binding
Method: (§1) The membrane fraction of HUVECs was isolated by using Mem-PER Eukaryotic Membrane Protein Extraction Kit which was also obtained from Pierce (Rockford, Ill., USA).
1 μg antibodies of GRP78 were pre-immobilized on 20 μl protein A/G agarose beads from Santa Cruz (Santa Cruz, Calif., USA) for 1 h at room temperature. Unbound antibodies were washed out by 100 mM Tris-Hcl (pH 8.0). Then 1 μg ISM and 1 μg GRP78 (or 1 mg membrane fraction protein lysates containing GRP78) were incubated with GRP78 antibody mounted beads for 4 h at 4° C. After removing the unbound proteins, precipitates were resolved by SDS-PAGE and analyzed for the presence of ISM, GRP78 or AACs by Western blotting.
Target sequence in this assay (P11021 19-654, species assumed): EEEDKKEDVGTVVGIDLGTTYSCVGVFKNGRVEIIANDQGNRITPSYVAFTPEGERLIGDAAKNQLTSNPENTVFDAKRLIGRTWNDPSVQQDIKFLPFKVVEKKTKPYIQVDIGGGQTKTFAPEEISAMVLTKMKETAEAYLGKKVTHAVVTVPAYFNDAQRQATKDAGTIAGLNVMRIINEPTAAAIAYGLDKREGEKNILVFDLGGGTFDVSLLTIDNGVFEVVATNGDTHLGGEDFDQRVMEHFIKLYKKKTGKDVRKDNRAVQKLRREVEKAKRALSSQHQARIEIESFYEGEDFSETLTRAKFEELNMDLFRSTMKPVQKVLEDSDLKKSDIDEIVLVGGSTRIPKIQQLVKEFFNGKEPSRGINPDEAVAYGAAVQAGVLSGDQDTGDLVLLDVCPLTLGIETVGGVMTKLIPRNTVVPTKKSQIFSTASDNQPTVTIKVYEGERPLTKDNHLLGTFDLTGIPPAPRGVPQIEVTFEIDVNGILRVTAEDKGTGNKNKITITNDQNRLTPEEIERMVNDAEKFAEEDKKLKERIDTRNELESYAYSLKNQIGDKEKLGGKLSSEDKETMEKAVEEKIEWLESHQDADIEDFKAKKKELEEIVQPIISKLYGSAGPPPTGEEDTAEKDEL

[3] = tested on: 4T1 breast carcinoma cells; assay: FITC-RKD binding to the 4T1 breast cancer cell surface in vitro; format: cell-based; conditions: 24 h treatment
Method: FIG. 12a FITC-RKD peptide binds to cell-surface GRP78. […] 4T1 breast carcinoma cells were treated with FITC-RKD (green) 24 h. Cells were fixed and stained by Phalloidin (red) to represent the cell outline. Nuclei were counter stained by DAPI (blue).

[4] = target: T2, GRP78, purified recombinant protein (UniProt P11021 19-654, limits assumed); assay: ELISA solid phase-binding assay, GRP78 titrated on the coated ligand
T2 construct: also called glucose-regulated protein 78 kDa; BiP

endothelial cells (ECs) = assay: Apoptosis assay (Cell Death ELISA) in cultured ECs; format: cell-based
Method: ECs (2×10^4 cells per well) in 96-well plate were starved in 2% FBS basal CSC medium for 3 h. Cells were then incubated with peptides of various concentrations and 15 ng/ml VEGF for 24 h. Apoptosis was detected by measuring cytosolic oligonucleosome-bound DNA using a Cell Death ELISA kit purchased from Roche (USA). Plots represented the mean of 3 wells of apoptotic cells in 96 well plate (±SEM).

GRP78 [5] = target: T1, GRP78; assay: ELISA solid phase-binding assay for binding affinity to GRP78
Method: (§2) ELISA solid phase-binding assay was used to determine the dissociation constant between ISM or cyclic peptide and GRP78 as previously described with minor modification (Nishiuchi, Takagi et al. 2006). 96-well plates were coated with 50 μl of 10 nM cyclic peptide at 4° C. overnight. Nonspecific binding sites were blocked with 1% BSA for 2 h at room temperature. Increasing concentrations of GRP78 were incubated with immobilized cyclic peptide. After washing, the amount of bound GRP78 was quantified by ELISA. The value for Kd was calculated by GraphPad Prism software.
Target sequence in this assay (P11021 19-654, species assumed): as above

HUVECs [6] = assay: Tube formation assay on Matrigel; format: cell-based, human
Method: HUVECs (1×10^4) were pre-treated with peptides of various concentrations for 30 min before being plated onto the polymerized Matrigel (Millipore, USA) in 15-well μ-slide (Ibidi, Germany). After 4-6 h, capillary network was documented using Zeiss Axiovert200 inverted microscope (Maple Grove, Minn., USA). Tube length was quantified by measuring the length of branches in representative fields using ImageJ software. Plots represented the mean of 3 wells of tubular length in 15-well μ-slide (t SEM).

ECs = assay: Cell attachment (EC adhesion) assay; format: cell-based; conditions: peptide coated on plastic surface
Method: 96-well plates were coated with 50 μl of 1 μM ISM at 4° C. overnight. Nonspecific binding sites were blocked with 1% BSA for 2 h at 37° C. ECs were harvested and incubated in CSC basal medium containing 4 μg/ml neutralizing antibodies or control IgG for 30 min. 2[…]104 cells were plated to each well and allowed to attach for 60 min at 37° C. Attached cells were fixed by 10% formalin and stained with 0.2% crystal violet. Absorbed crystal violet was extracted by 10% acetic acid and quantified by measuring the absorbance of eluted dye at 595 nm with a microplate reader.

[7] = target: T2, GRP78, purified recombinant protein; assay: ELISA solid phase-binding assay, compared with cRKD
Method: as §2
Using similar ELISA method, we determined the binding affinity between kRKD peptide and GRP78 using purified recombinant GRP78 protein.

B16F10 melanoma = assay: Mouse tumorigenesis: subcutaneous B16F10 melanoma, intravenous treatment from day 0; format: in vivo
Method: FIG. 4 Recombinant ISM and ISM derived cRKD peptide inhibit B16F10 tumour growth in vivo. A. Tumour growth curve in mice. X-axis represents the days after 5×10^5 tumour cell inoculation. Groups consisted of control mice receiving no treatment, recombinant ISM, cRKD peptide and its control-cyclic RAA peptide, given in six doses of 250 μg/mouse through tail vein injection on days 0, 2, 4, 6, 8, and 10 (5 mice in each group, each mice with one tumour). **: p<0.01,*: p<0.05, n=5. B. Tumour weight at the end of the experiment (14 days after tumour cell inoculation). C. Recombinant ISM and cRKD peptide inhibits B16F10 tumour growth. […] Paraffin sections of tumors from mice groups treated by control, ISM, cRAA and cRKD peptides were probed for microvessel density, tumor cell proliferation and apoptosis through immunofluoresence staining using anti-CD31 (A), anti-PCNA (B) and TUNEL staining (C) respectively. Representative photos are shown. (D) Quantification of microvessel density. Microvessel density is the number of microvessels per microscopic field. (E) Quantification of cell proliferation in tumor sample. Cell proliferation is presented as the percentage of PCNA positive cells out of the total number of cells (DAPI positive cells) in the microscopic field. (F) Quantification of apoptosis in tumor. Apoptosis is quantified as the percentage of TUNEL positive cells out of the total number of cells (DAPI positive cells) in the microscopic field. Plots represent the mean of 3 fields per section, 3 sections per tumor and 2 tumors per group (±SEM). ** P≦0.01, * P≦0.05; Adult 8-week-old female C57BL/6J mice were used in this study. Animal care and experimentation was carried out under the institutional guidelines issued by the local institutional animal care and use committee (IACUC; protocol 066/12). 5×10^5 B16F10 cells in 0.1 ml PBS were injected subcutaneously into the dorsal left flank of the mouse. Twenty mice were assigned into 4 different groups consisted of control mice receiving no treatment, recombinant ISM, cyclic RKD peptide and its peptide control-cyclic RAA peptide, given in six doses of 250 μg through tail vein injection on days 0, 2, 4, 6, 8, and 10 (5 mice in each group, each mice with one tumor). Health status of the mice was monitored over two weeks and visible tumor size were measured daily by calipers after 8 days until the end point (day 14). Tumor volume was calculated using the following formula: 0.52×length×(width)^2 mm^3, where the largest dimension of the tumor is considered as the length and the width is the perpendicular dimension. On day 14, mice were sacrificed, and their dorsal flank was opened and photographed to exam the vascularization. Then tumors were excised and weighed followed by either fixing in 4% paraformaldehyde for sectioning or snap-freezing in liquid nitrogen for further analysis. Paraffin-embedded tissue sections of 5 μm were deparaffinized by heating at 60° C. for 7 minutes before deparaffinizing in histoclear followed by the rehydration in graded series of alcohol (100%, 90%, 80%, and 70% ethanol in ddH2O) and finally in PBS for 5 minutes. Antigen retrieval was done in a bench-top 2100-Retriever according to the protocol of the manufacturer (Electron Microscopy Sciences, Hatfield, Pa.). The sections were blocked with 3% bovine serum albumin (BSA) in a humidified chamber for 1 hour at room temperature followed by overnight incubation with the anti-CD31 (Santa Cruz Biotechnology, Santa Cruz, Calif.), anti-PCNA antibody (Santa Cruz Biotechnology), anti-GRP78 antibody (Santa Cruz Biotechnology), or anti-His tag antibody (Santa Cruz Biotechnology) at 4° C. The following day, unbound antibody was washed with 1×PBS containing 0.1% Tween-20 (1×PBST) and incubated with the corresponding Alexafluor 568 secondary antibodies (Life Technologies) for 1.5 hours at 37° C. Sections were rinsed again and incubated for 10 minutes with DAPI at 1 μg/mL to visualize the DNA in the cell nucleus. […]

GRP78 [8] = target: T1, GRP78; assay: Pull down assay with HUVEC plasma membrane extract; format: binding; design: Incubation of ISM with plasma membrane extract from HUVECs; endogenous in cells; host or cells: HUVEC plasma membrane fraction; conditions: plasma membrane extract from HUVECs
Source text: His-tagged ISM and its binding partners from plasma membrane extract were pulled down by Epitope Tag Protein Isolation Kit with separation columns purchased from μMACS (Bergisch Gladbach, Germany). For searching potential binding partners of ISM, eluants were subjected to SDS-PAGE and stained with coomassie blue. Excised bands were identified by MALDI-TOF-TOF mass spectrometry analysis.
as §1
Target sequence in this assay (P11021 19-654): as the sequence (P11021 19-654, species assumed) above

T2 sequence (P11021 19-654 limits assumed): as the sequence (P11021 19-654, species assumed) above

FITC-RKD: FITC-CRKDC, disulfide bridge 1-5 ({FITC}-CRKDC; disulfide 1-5)
cell types labelled in the tumor (B16 melanoma): Both tumor cells and tumor blood vessel endothelial cells are labeled | labelling of xenograft melanoma (B16 melanoma): preferentially labelled xenograft melanoma | uptake by cultured HUVECs (HUVECs [1]): efficiently taking up by cultured HUVECs | binding to cell-surface GRP78 by co-immunoprecipitation (GRP78 [2]; anti-FITC antibody, plasma membrane fraction of cultured HUVECs): binds cell-surface GRP78 | binding to 4T1 cell surface [3]: binds 4T1 breast cancer cell surface in vitro

Isthmin (ISM), recombinant His-tagged protein (from UniProt A2ATD1 30-454) (ligand)
Kd [4]: 8.6 nM

cRAA: Negative control mutant peptide, sequence CRAAC, disulfide bridge 1-5 (disulfide 1-5) [reference compound]
pro-apoptotic activity at 1 μM (endothelial cells (ECs); 1 μM peptide, cultured ECs with VEGF): almost no activity | induction of EC apoptosis (pro-apoptotic activity) (endothelial cells (ECs); cultured ECs in the presence of VEGF, 24 h): completely destroyed the proapoptotic activity | affinity for GRP78, fold less than cRKD (GRP78 [5]; relative to cRKD): about 50 fold | anti-angiogenic activity at 1 μM (HUVECs [6]; 1 μM peptide): no anti-angiogenic activity | inhibition of EC tube-like structure formation on Matrigel (HUVECs [6]; dose-dependence): lost this activity | EC attachment and adhesion (ECs): lost the ability to mediate EC adhesion

B1: Cyclic RAA peptide (cRAA) (peptide)
peptide: CRAAC
modifications: disulfide 1-5
notes: Mutant control of cRKD, with K and D both changed to A; also called control-cyclic RAA peptide
fold lower affinity than cRKD [7]: ~50 fold

B2: ISM: Isthmin, a 60 kDa secreted angiogenesis inhibitor; recombinant His-tagged mouse protein (protein, UniProt A2ATD1 30-454, looked up)
Isthmin-1: SDRQDAAAGNNNLNLESDSTSETSFPLSKEAPEEHQVVHQPFPRQRFPPETGHPSLQRDGPRSFLLDLPNFPDLSKADINGQNPNIQVTIEVVDGPDSEAEKDQHPENKPSWSLPAPDWRAWWQRSLSLARTNSGDQDDKYDSTSDDSNFLSVPRGWDRPAPGHRTFETKEQPEYDSTDGEGDWSLWSVCSVTCGNGNQKRTRSCGYACIATESRTCDRPNCPGIEDTFRTAATEVSLLAGSEEFNATKLFEVDMDSCERWMSCKSEFLKKYMHKVINDLPSCPCSYPTEVAYSTADIFDRIKRKDFRWKDASGPKEKLEIYKPTARYCIRSMLSLESTTLAAQHCCYGDNMQLITRGKGAGTPNLISTEFSAELHYKVDVLPWIICKGDWSRYNEARPPNNGQKCTESPSDEDYIKQFQEAREY
modifications: His tag
notes: recombinant His-tagged mouse protein
Kd (GRP78 [5]; purified recombinant GRP78): 8.6 nM | ISM-GRP78 interaction by co-immunoprecipitation (GRP78 [2]; purified recombinant ISM and GRP78 proteins): confirmed the ISM-GRP78 interaction | tumor growth (B16F10 melanoma; 250 μg/mouse intravenous every 2 days, days 0-10, subcutaneous B16F10): suppressed tumor growth | vascularization (blood vessels supplying the tumor) (B16F10 melanoma; 250 μg/mouse intravenous, day 14): reduced vascularization | tumor angiogenesis, tumor cell proliferation and tumor cell apoptosis (B16F10 melanoma; immunofluorescence of tumor sections): suppress tumor angiogenesis, tumor cell proliferation and induce tumor cell apoptosis | apoptosis of tumor cells and tumor ECs (CD31/TUNEL double staining) (B16F10 melanoma; tumor sections, compared to controls): both tumor cells as well as tumor ECs became apoptotic | tumor vessel density (anti-CD31 immunofluorescence) (B16F10 melanoma; tumor tissue sections): obvious reduction of tumor vessel density | binding partner of ISM identified by pull-down (GRP78 [8]): identified GRP78 as a ISM binding protein
